Assay results published in US20130171184A1.

Target: Neisseria meningitidis Hsf (Msf) of strain H44/76, expressed on meningococci (Neisseria meningitidis strain H44/76) (UniProt Q7DDJ2)
Assay: ELISA, bacteria preincubated with 25 µg/ml peptide, binding to 2.5 µg/ml immobilised aVn

Neisseria meningitidis Hsf (Msf) of strain H44/76, expressed on meningococci (Neisseria meningitidis strain H44/76), sequence (Q7DDJ2 52-591): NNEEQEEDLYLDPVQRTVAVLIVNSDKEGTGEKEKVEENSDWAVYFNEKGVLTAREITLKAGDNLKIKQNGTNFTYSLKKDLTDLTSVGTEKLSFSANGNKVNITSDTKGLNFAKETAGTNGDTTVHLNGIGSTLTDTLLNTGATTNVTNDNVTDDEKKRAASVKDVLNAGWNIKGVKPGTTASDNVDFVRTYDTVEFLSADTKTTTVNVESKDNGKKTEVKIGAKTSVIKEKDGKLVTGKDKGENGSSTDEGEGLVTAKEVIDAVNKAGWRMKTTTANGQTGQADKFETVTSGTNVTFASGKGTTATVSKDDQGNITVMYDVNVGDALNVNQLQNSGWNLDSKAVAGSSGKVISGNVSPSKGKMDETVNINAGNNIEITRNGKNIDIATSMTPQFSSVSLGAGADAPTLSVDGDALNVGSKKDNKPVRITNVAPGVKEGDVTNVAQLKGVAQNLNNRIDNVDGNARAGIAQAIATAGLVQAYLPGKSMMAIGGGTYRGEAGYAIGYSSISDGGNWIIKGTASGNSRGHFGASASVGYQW

## biotinylated sulphated vitronectin peptide VA-26S (amino acids 43-68)
  reduction in Msf binding to aVn: 30%
